Results on 130 substances are retold here after the supplement of paper PMC12042874.

± gives the uncertainty stated by the source.

This data set in a line: amyloid nucleation score (Sup35N fusion, yeast selection) (log enrichment); library NNK3; higher = more nucleation; inactive = no reads after selection. A digest of the protocol:
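Growth for 7 days at 30°C on medium lacking adenine and uracil followed a 24-hour induction with 100 μM copper sulfate of psi-negative yeast expressing peptides of 20 random codons fused to Sup35N. Input and output plasmid inserts were sequenced with Illumina, and sequences with under 100 input reads were excluded. Nucleation score is the DiMSum log enrichment of output over input reads, centred on the mode score of non-aggregating sequences.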
Turning to NILKKLNVRNHFLVLMKKHM, the amyloid nucleation score entry is “inactive”.

Regarding WFFTLCSSDQVSRGMR, the amyloid nucleation score entry was “inactive”.

SGIMSHVGGTELLNSLHLMF: the amyloid nucleation score result is “inactive”.

Turning to YIRLCSVFGTTWYARLDG, the amyloid nucleation score worked out at 0.459 ± 0.27.

Regarding WKYRMTQRPQMVNWNVLRYE, the amyloid nucleation score result was “inactive”.

MIWFVLL yielded an amyloid nucleation score of 2.17 ± 0.089.

In the case of FDLVFLLYMGMTQ, the amyloid nucleation score result is “inactive”.

YFDCNFVW yielded an amyloid nucleation score of 0.997 ± 0.14.

Regarding PHMSLKTFSDS, the amyloid nucleation score result is “inactive”.

YLYRFLPVQTRPLMHATSYI: the amyloid nucleation score result was “inactive”.

Regarding IMSNTLIHYLHRMLSSALCY, the amyloid nucleation score result was “inactive”.

For RSTFRRLLRCFGFWRRWSCI, the amyloid nucleation score result is “inactive”.

Turning to RWCFCWICHYLDVLCHYCLH, the amyloid nucleation score result was “inactive”.

On to SLSPDPFEFLLLSLLLRSAV, for which the amyloid nucleation score result is “inactive”.

Take WHMWMESKLWQPQRATSVFP: the amyloid nucleation score result is “inactive”.

Take IRYALTINYSNTVL: the amyloid nucleation score is 0.457 ± 0.24.

FCKLYINQYIYHDSVVVIVG yielded an amyloid nucleation score of 2.41 ± 0.06.

The substance VGSAGVSVFVWRVCRFCEGN displayed an amyloid nucleation score of -0.434 ± 1.1.

As to NLNYRLADSCLNSVLDRLGQ, the amyloid nucleation score result is “inactive”.

On to SREWSKSVVCTYLTMRGRLS, for which the amyloid nucleation score result is “inactive”.

The substance TPIHRL gave an amyloid nucleation score of 0.451 ± 0.16.

Regarding FGKRQSAMLLDLNSGWSNLD, the amyloid nucleation score was -0.42 ± 1.3.

Substance LLCFVDVSYVHNA returned an amyloid nucleation score of 0.834 ± 0.23.

With RAYSLLVRQIVRCNESG, the amyloid nucleation score result was “inactive”.

Take LSNHCARVF: the amyloid nucleation score result was “inactive”.

On to EFMAGNDSRIQCSRIRGCYG, for which the amyloid nucleation score entry is “inactive”.

For SQVLWGTSRGLYYTDRNFTN, the amyloid nucleation score result is “inactive”.

For IIMSQMVYIVRDIHFVCWVI, the amyloid nucleation score result is “inactive”.

Take DDGSKCLLSSMMFVNLVTYC: the amyloid nucleation score entry was “inactive”.

In the case of GPMWQLAVTCACSDNRMWTK, the amyloid nucleation score stood at 0.053 ± 0.51.

For WFGKPFYTYSKSSWRMLYQL, the amyloid nucleation score result is “inactive”.

Take TITCCVYDN: the amyloid nucleation score is 2.13 ± 0.053.

As to FYSMSLVSFCFYGDLYLDNG, the amyloid nucleation score worked out at 2.76 ± 0.077.

Consider VSSSDNSVEIDRVHKMSMVE, for which the amyloid nucleation score result is “inactive”.

For the substance SWVTDWIL, the amyloid nucleation score result is “inactive”.

Turning to IFLFSSRCALDNIVEPWFFW, the amyloid nucleation score entry is “inactive”.

On to CAVGISLRPFFMISLQLSYL, for which the amyloid nucleation score entry was “inactive”.

On to LLSPQFRRIGSFRWKFAPRF, for which the amyloid nucleation score entry is “inactive”.

Consider INNTAPPQTYPR, for which the amyloid nucleation score entry was “inactive”.

With SCMSYDLRQL, the amyloid nucleation score result is “inactive”.

In the case of LIPASLKADRQCAHSRYSR, the amyloid nucleation score entry is “inactive”.

Take TISISR: the amyloid nucleation score entry is “inactive”.

Turning to GLGTAD, the amyloid nucleation score entry was “inactive”.

In the case of VLAMIVRHRKYKIDFIFMLD, the amyloid nucleation score result is “inactive”.

With LSLISVSLG, the amyloid nucleation score entry was “inactive”.

As for ANVCGVL, the amyloid nucleation score entry is “inactive”.

Regarding TMLYGSIRQSGDMQMSTLSV, the amyloid nucleation score result was “inactive”.

Turning to LSFSRDRLLHSSWGTKLMIM, the amyloid nucleation score result was “inactive”.

Take YLSVVRGPMNRCSYYKVMTE: the amyloid nucleation score result was “inactive”.

For the substance NIFNCDRGSFFLLYRGIGFY, the amyloid nucleation score result was “inactive”.

As for LNRDGVISMFFSFCGGTRPR, the amyloid nucleation score was -0.452 ± 0.93.

Turning to GKVYLYLCLGMMFGL, the amyloid nucleation score result was “inactive”.

As to ALIKFLEFKGRSAWSMRFIA, the amyloid nucleation score entry was “inactive”.

As to LRGSRYFWDWAPSYYFVHLR, the amyloid nucleation score result is “inactive”.

LSAHMMSCIKVYEFGFGCVD: the amyloid nucleation score entry is “inactive”.

With GDSLMMYQQDWISEVLICLA, the amyloid nucleation score result was “inactive”.

Regarding GTEDWPNHGKKTLAINYLCP, the amyloid nucleation score entry is “inactive”.

As to LLFCVLFATPINCISLIMSE, the amyloid nucleation score result is “inactive”.

With FERISRSFAYIDIRHIICMF, the amyloid nucleation score worked out at 1.56 ± 0.11.

On to YTYECRCH, for which the amyloid nucleation score entry was “inactive”.

Turning to GMFRDHAYADCRGLTY, the amyloid nucleation score result is “inactive”.

In the case of FWGVSDGFMC, the amyloid nucleation score was -0.141 ± 0.96.

Take INRVHLYRLLKW: the amyloid nucleation score result was “inactive”.

As to NSGWWRVKHNTSQDGSKRSG, the amyloid nucleation score result is “inactive”.

Regarding HGRLLYVSYISDMINASYGQ, the amyloid nucleation score result was “inactive”.

For the substance WKGLL, the amyloid nucleation score entry was “inactive”.

Take SLCLASGFKRCNIV: the amyloid nucleation score is -0.072 ± 0.8.

CFNSR: the amyloid nucleation score result was “inactive”.

For NYLLEEEYMISCIEAITLQP, the amyloid nucleation score is -0.345 ± 0.82.

Consider CGLPTVKTYRMEMSYNRLDW, for which the amyloid nucleation score result is “inactive”.

Take DGCALSMPNYAGNQVVKQRG: the amyloid nucleation score result is “inactive”.

For the substance CFVGVTFDLSSDLCLFCNKV, the amyloid nucleation score result is “inactive”.

PTTFNVFLGLWCVGTYCTWL came in with an amyloid nucleation score of 0.997 ± 0.24.

In turn, FAFKLWRKVQYVFHLFYPAR returned an amyloid nucleation score of 0.342 ± 0.69.

Take LFLGLVLAHPPDRVRLSTVL: the amyloid nucleation score result is “inactive”.

In the case of FSSRHVTPCIRINFNIVSCS, the amyloid nucleation score result was “inactive”.

For SIICCAFLVVQFKER, the amyloid nucleation score turned out to be 2.62 ± 0.084.

With FNVGFLKWCFSMVGQGVDLH, the amyloid nucleation score result was “inactive”.

Take SAYVLDGYMEISQILVIWSL: the amyloid nucleation score entry is “inactive”.

Regarding FKSVIESTLMIETDY, the amyloid nucleation score result was “inactive”.

For the substance SSELLLHGGTYYKIIYK, the amyloid nucleation score worked out at 0.586 ± 0.12.

For the substance LSDDMPKV, the amyloid nucleation score result was “inactive”.

Take GSLCLSGKKIVFLHMNEAMG: the amyloid nucleation score result is “inactive”.

For GIWCDITHGNRMAWNYVLIR, the amyloid nucleation score result was “inactive”.

With LFAIDNWVVKDSLVVWCEGR, the amyloid nucleation score entry was “inactive”.

As for FNQFHFKCSFNQCCYLNQAA, the amyloid nucleation score result was “inactive”.

Regarding VYSEFWVHMLLLSFRVIYIL, the amyloid nucleation score entry was “inactive”.

With IRSTGLINFQYWKMKTFLII, the amyloid nucleation score result is “inactive”.

For YHSLYTAPDEGLFYRNRRKF, the amyloid nucleation score entry is “inactive”.

As for STRRSYNPCYWSGLYSSIGH, the amyloid nucleation score result is “inactive”.

For SFSPFVTFNKWSRWGLRNIG, the amyloid nucleation score result was “inactive”.

AYRRKLISGFIWERFLFRCG: the amyloid nucleation score result is “inactive”.

Take NKDFGFSYIRTFPRILKVW: the amyloid nucleation score entry was “inactive”.

Turning to SLNNCGLLWYPSTTPPESLG, the amyloid nucleation score entry was “inactive”.

LCFFVERRLKGYDVGLSNLL: the amyloid nucleation score entry was “inactive”.

For the substance LSSFNDDMNGVTFYPSISLD, the amyloid nucleation score entry is “inactive”.

GRLSTAICFCGTMPSRWGFS: the amyloid nucleation score result is “inactive”.

As for LRVCISGYSN, the amyloid nucleation score result is “inactive”.

TTTAYWNESDTLRCMLV showed an amyloid nucleation score of -0.757 ± 1.4.

Take KGVGFPVCTSNG: the amyloid nucleation score entry is “inactive”.

On to RLNRVGNFIAGHLIGA, for which the amyloid nucleation score entry is “inactive”.

As to KFPFSGPSRMTRRVMQRALL, the amyloid nucleation score entry was “inactive”.

The substance NSGYVYGIQCNVWVLAFMGF came in with an amyloid nucleation score of 2.7 ± 0.068.

Take SPPTGYRASNWRGLGSVDGW: the amyloid nucleation score result is “inactive”.

ESMRGSYSYYSSGCLHD: the amyloid nucleation score entry was “inactive”.

Consider FNPCRGCYETKFHVYRLSRL, for which the amyloid nucleation score amounted to 0.584 ± 0.28.

For VGYGFIC, the amyloid nucleation score entry was “inactive”.

For VRIWLNVYGVVSLGGRRLLV, the amyloid nucleation score result was “inactive”.

Substance YTNHFVDLGMVKLVLFTWNM came in with an amyloid nucleation score of 1.63 ± 0.11.

As for SVGVGNIHTR, the amyloid nucleation score entry is “inactive”.

As for YFGNSGWDHGWPVVHKMSFS, the amyloid nucleation score result was “inactive”.

On to VSMSLDCM, for which the amyloid nucleation score entry was “inactive”.

Regarding FLFRRLGRSYYKYAV, the amyloid nucleation score result is “inactive”.

For VMWEPFAYLFISSWRYVSLK, the amyloid nucleation score result was “inactive”.

With ILVFILYHCCIIHLGLNLAK, the amyloid nucleation score entry was “inactive”.

TDDAGMYDNRFQSMSDENTF: the amyloid nucleation score entry is “inactive”.

As to LVDLLHTMYSCYLGYKSFRG, the amyloid nucleation score result is “inactive”.

In the case of MSEVPGMNDTWRVCIMDQGK, the amyloid nucleation score entry is “inactive”.

Regarding TLLHLLKLSGLVSKCSTMVL, the amyloid nucleation score entry is “inactive”.

TKRKCYPRLVRPGRLKGPSG: the amyloid nucleation score entry is “inactive”.

For LCAQGYDLFALCKVYWLREW, the amyloid nucleation score result is “inactive”.

With MGEPGVDAFNRLTPKWCLIP, the amyloid nucleation score entry is “inactive”.

As to CNNNLGVVFPRFWSIFAKGC, the amyloid nucleation score result is “inactive”.

As for CIMRMTFTMITYCNSLSLGS, the amyloid nucleation score result was “inactive”.

As for GYMDAGIDWF, the amyloid nucleation score entry is “inactive”.

IVMVIAAGWFN: the amyloid nucleation score is 0.633 ± 0.2.

For CILYRFPPATKSHRITGIYK, the amyloid nucleation score result was “inactive”.

For the substance YSGSCNFVQVSVFKHWSGVY, the amyloid nucleation score entry was “inactive”.

With NFVGTICLCLSYYVSVNSCC, the amyloid nucleation score result is “inactive”.

Turning to ISCLDGCFS, the amyloid nucleation score entry is “inactive”.
